Km, kcat and kcat/Km data for three proteins are collected here from patent US11203773B2, “Designer ribosomes and methods of use thereof for incorporating non-standard amino acids into polypeptides” (Yale University, priority 2016, dated 2021).

As a reminder, the Km is the substrate concentration at which the rate is half of its maximum. In general, kcat refers to the number of substrate molecules converted per active site and unit of time at saturation. What is called kcat/Km is the second-order rate constant that governs catalysis at low substrate concentration.

Substrate in series [1]: N[C@@H](Cc1ccc(O)cc1)C(=O)O
Briefly: Adenylation of α- and β-Tyr, coupled MESG/PNP pyrophosphate release assay. It counts as biochemical, E. coli. The note with it: other: adenylation, TyrRS. From the text:
ii. Adenylation of α- and β-Tyr catalyzed by E. coli TyrRS. These reactions were monitored spectrophotometrically in a coupled assay using inorganic pyrophosphatase, 2-amino-6-mercapto-7-methylpurine ribonucleoside (MESG), and purine nucleoside phosphorylase (PNP) to monitor the rate of pyrophosphate release, according to the manufacturer's instructions (Enzcheck Pyrophosphate assay kit, Thermo Fisher Scientific). The assay measures the increase in absorbance at 360 nm due to MESG phosphorolysis, and two molecules of MESG are consumed per pyrophosphate generated. This direct assay could be employed for TyrRS because the rate of ATP hydrolysis (in the absence of amino acid substrate) was insignificant, which was not the case for the other synthetases which therefore required the more laborious pyrophosphate exchange assay described above. […] For TyrRS, kcat is the turnover number (units of reciprocal time) since the change in absorbance can be directly correlated to concentration of pyrophosphate formed.

Substrate in series [2]: N[C@@H](Cc1ccc(O)cc1)C(=O)O
Kind of series: Aminoacylation of 32P-tRNA with α- and β3-amino acids. It counts as biochemical, E. coli. The conditions noted are these: other: aminoacylation, TyrRS.

Substrate in series [3]: CSCC[C@H](N)C(=O)O
Briefly: purified protein, by the assay type. The conditions noted are these: MetRS.

Substrate in series [4]: N[C@@H](Cc1ccccc1)C(=O)O
Briefly: purified protein, by the assay type. The conditions noted are these: other: adenylation, PheRS; pH 7.0; 25.0 °C.

Substrate in series [5]: N[C@@H](Cc1ccccc1)C(=O)O
Kind of series: Aminoacylation of 32P-tRNA with α- and β3-amino acids. It counts as biochemical, E. coli. The note with it: other: aminoacylation, PheRS.

B1: E. coli TyrRS (Escherichia coli K-12) (protein)
chain: MASSNLIKQLQERGLVAQVTDEEALAERLAQGPIALYCGFDPTADSLHLGHLVPLLCLKRFQQAGHKPVALVGGATGLIGDPSFKAAERKLNTEETVQEWVDKIRKQVAPFLDFDCGENSAIAANNYDWFGNMNVLTFLRDIGKHFSVNQMINKEAVKQRLNREDQGISFTEFSYNLLQGYDFACLNKQYGVVLQIGGSDQWGNITSGIDLTRRLHQNQVFGLTVPLITKADGTKFGKTEGGAVWLDPKKTSPYKFYQFWINTADADVYRFLKFFTFMSIEEINALEEEDKNSGKAPRAQYVLAEQVTRLVHGEEGLQAAKRITECLFSGSLSALSEADFEQLAQDGVPMVEMEKGADLMQALVDSELQPSRGQARKTIASNAITINGEKQSDPEYFFKEEDRLFGRFTLLRRGKKNYCLICWK
notes: made in house; host or cells: E. coli BL21(DE3)
Consider B1, for which, in series [1], the Km came out at 21.4 ± 6.9 µM, the kcat was determined as 0.0203 ± 0.00183 s⁻¹ and the kcat/Km was found to be 1000 ± 333 M⁻¹ s⁻¹. For the same protein, in series [2], the Km worked out at 12.4 ± 4.8 µM, the kcat was 1.18 ± 0.128 s⁻¹ and the kcat/Km was 95000 ± 38300 M⁻¹ s⁻¹.

B2: E. coli MetRS (Escherichia coli K-12) (protein)
chain: MTQVAKKILVTCALPYANGSIHLGHMLEHIQADVWVRYQRMRGHEVNFICADDAHGTPIMLKAQQLGITPEQMIGEMSQEHQTDFAGFNISYDNYHSTHSEENRQLSELIYSRLKENGFIKNRTISQLYDPEKGMFLPDRFVKGTCPKCKSPDQYGDNCEVCGATYSPTELIEPKSVVSGATPVMRDSEHFFFDLPSFSEMLQAWTRSGALQEQVANKMQEWFESGLQQWDISRDAPYFGFEIPNAPGKYFYVWLDAPIGYMGSFKNLCDKRGDSVSFDEYWKKDSTAELYHFIGKDIVYFHSLFWPAMLEGSNFRKPSNLFVHGYVTVNGAKMSKSRGTFIKASTWLNHFDADSLRYYYTAKLSSRIDDIDLNLEDFVQRVNADIVNKVVNLASRNAGFINKRFDGVLASELADPQLYKTFTDAAEVIGEAWESREFGKAVREIMALADLANRYVDEQAPWVVAKQEGRDADLQAICSMGINLFRVLMTYLKPVLPKLTERAEAFLNTELTWDGIQQPLLGHKVNPFKALYNRIDMRQVEALVEASKEEVKAAAAPVTGPLADDPIQETITFDDFAKVDLRVALIENAEFVEGSDKLLRLTLDLGGEKRNVFSGIRSAYPDPQALIGRHTIMVANLAPRKMRFGISEGMVMAAGPGGKDIFLLSPDAGAKPGHQVK
Take B2: the Km in series [3] (other: adenylation, pH 7.0, 25.0 °C) came to 23.4 ± 8.0 µM. Further, in series [3] (other: aminoacylation), the Km turned out to be 243.4 ± 55.7 µM, the kcat amounted to 0.0233 s⁻¹ and the kcat/Km amounted to 100 M⁻¹ s⁻¹.

B3: E. coli PheRS (Escherichia coli K-12) (protein)
chain: MSHLAELVASAKAAISQASDVAALDNVRVEYLGKKGHLTLQMTTLRELPPEERPAAGAVINEAKEQVQQALNARKAELESAALNARLAAETIDVSLPGRRIENGGLHPVTRTIDRIESFFGELGFTVATGPEIEDDYHNFDALNIPGHHPARADHDTFWFDTTRLLRTQTSGVQIRTMKAQQPPIRIIAPGRVYRNDYDQTHTPMFHQMEGLIVDTNISFTNLKGTLHDFLRNFFEEDLQIRFRPSYFPFTEPSAEVDVMGKNGKWLEVLGCGMVHPNVLRNVGIDPEVYSGFAFGMGMERLTMLRYGVTDLRSFFENDLRFLKQFK
notes: as for B1
For B3, the Michaelis constant (Km) was found to be 52.8 ± 25.8 µM in series [4] and 200.4 ± 78.8 µM in series [5].
